Laboratory results from the supplement of paper PMC12764529.
± gives the half width of the 95% confidence interval.

Columns and labels:
[1] = folding stability dG unfold from trypsin proteolysis; higher = more stable
In short: (§1)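 How resistant each design was to proteolysis was captured as K50, inferred by Bayesian fitting of sequencing counts. Unfolding free energy was then derived relative to a sequence-predicted unfolded-state K50 and a shared folded-state K50, per protease or combined. Digestion used trypsin and chymotrypsin at 11 threefold-diluted concentrations plus a no-protease condition, on mini-proteins under 80 residues without cysteine in a PA-tagged cDNA display construct. Designs were kept only when AlphaFold2 dimer inter-PAE was above 15.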

[2] = folding stability dG unfold from chymotrypsin proteolysis; higher = more stable
In short: as §1

[3] = folding stability dG unfold (combined trypsin and chymotrypsin); higher = more stable
In short: as §1

Sequence | folding stability dG unfold [1] | folding stability dG unfold [2] | folding stability dG unfold [3]
SAGGSAKVKIEVSIEVSEDGTITITVRITNENGEELTVTITIKLPPAPTVVYDSEEERKKALEALASAGGSA [r15_1018_TrROS_Hall] | 2.9 ± 0.14 kcal/mol | 2.2 ± 0.19 kcal/mol | 2.38 ± 0.26 kcal/mol
SAGGSAKVKIYLIKLPPNGNPLEVIKKVKEKGGNAIIVSGPGLHAVIEADEPEEAAKKAKEILEKLSAGGSA [r15_546_TrMRF] | 0.361 ± 0.1 kcal/mol | 0.121 ± 0.2 kcal/mol | 0.292 ± 0.097 kcal/mol
SAGGSAKVTIDTDNGIIKIEVGGKLIAEIEIPPGFPGGIYLEYEPNPPTLKFYIYTKNGPVYINDISAGGSA [r2_399_TrMRF] | 3.5 ± 0.43 kcal/mol | 3.96 ± 0.17 kcal/mol | 3.69 ± 0.32 kcal/mol
SAGGSAKVVEIELVEVRRNANGERIVRVRIKLPNGEERTIEMSEEELKELLAKLPPNVEIVAIEEVSAGGSA [r15_339_TrROS_Hall] | 1.42 ± 0.077 kcal/mol | 1.76 ± 0.043 kcal/mol | 1.56 ± 0.15 kcal/mol
SAGGSAKWLPAEELADELADTLMQRHGYEIKNVDVEVIDPDEGYIRVNIEYEHPGGRHKHDIIIPVSAGGSA [r15_32_TrROS] | 0.1 ± 0.18 kcal/mol | 0.851 ± 0.092 kcal/mol | 0.662 ± 0.17 kcal/mol
SAGGSALENLEENEYIVKIEIEKKNKKKIEIVIAGKPEKIKEIEKELKKKGFKILKIEPKKVKDVLSAGGSA [r15_640_TrMRF] | 1.45 ± 0.054 kcal/mol | 1.59 ± 0.066 kcal/mol | 1.56 ± 0.1 kcal/mol
SAGGSALKIMVEPDPEDGTVRVWFMIPNPENGEEFMVQAEIDPNGKIEDVEVYPNGNMIWITFKLPSAGGSA [r15_557_TrROS] | 2.4 ± 0.061 kcal/mol | 3.36 ± 0.037 kcal/mol | 2.96 ± 0.087 kcal/mol
SAGGSALKIPSGKKYTVVVKDPNKPVEYVADVIERHPDSILIEVKDPNSSKTKKITVPTNVITIDLSAGGSA [r15_381_JUSTAS] | -0.095 ± 0.15 kcal/mol | 0.684 ± 0.16 kcal/mol | 0.464 ± 0.19 kcal/mol
SAGGSALPEDATVKVEVTVVTLVYDPETGGFYLKVAKVEKEIRFDPKNGKLEVKVKKVEVKVFKLGSAGGSA [r15_517_TrMRF] | 2.96 ± 0.21 kcal/mol | 4.41 ± 0.17 kcal/mol | 4.19 ± 0.33 kcal/mol
SAGGSALPPGQEVEITIMIMVMIYNPENGRMWMVMASVEIEIRVDPKNGKLEIKIKKISISIFPMDSAGGSA [r15_517_TrROS] | 4.23 ± 0.72 kcal/mol | 5.8 ± 0.52 kcal/mol | > 6 kcal/mol
SAGGSALPPHAVRVLVVTATDTDPGAAAARIAEEFRRKYPNTRVLTRPFDVPPGRPAVVAVVYVDESAGGSA [r15_916_TrMRF] | 1.15 ± 0.12 kcal/mol | 2.54 ± 0.11 kcal/mol | 2.08 ± 0.2 kcal/mol
SAGGSAMDAKVVDLSLPFTLSEDGSLTATVTIEFPDGSKVPIEIPGREDGELKLEEILAAAKEALGSAGGSA [r15_233_TrMRF] | 0.553 ± 0.093 kcal/mol | 0.27 ± 0.069 kcal/mol | 0.478 ± 0.14 kcal/mol
SAGGSAMDLKIKKKERDPPNGTKKLTVEVPGWEVEINIERNPDGPYKIEIYAPNPAAKNAIKEFIKSAGGSA [r15_42_TrROS] | -0.275 ± 0.26 kcal/mol | 0.488 ± 0.18 kcal/mol | 0.324 ± 0.2 kcal/mol
SAGGSAMDPSKLVRKKVRFRVVDPNGKPLGEIDIEVEFPGGVSEEEAEELLRELIAALAPPAGVEGSAGGSA [r15_310_TrMRF] | 1.52 ± 0.022 kcal/mol | 3.023 ± 0.023 kcal/mol | 2.73 ± 0.071 kcal/mol
SAGGSAMEEEKPPKVKVRITVELEDGEKLEIEFETKEEAEEAAEALAKELEEKTGLKIKKIEVEEVSAGGSA [r15_140_TrROS_Hall] | 2.77 ± 0.11 kcal/mol | 2.96 ± 0.13 kcal/mol | 2.81 ± 0.23 kcal/mol
SAGGSAMEIDIDPEKNEIRIYNPWNGQPHPFTIESIEPIDPDNKYFKFKIKYPDTGKEMPFMVQIDSAGGSA [r15_209_TrROS] | 0.57 ± 0.042 kcal/mol | 1.4 ± 0.15 kcal/mol | 1.08 ± 0.12 kcal/mol
SAGGSAMEIKTLETKTVKTEKLPDGSTKVTTTYKTVDPSGGKTSNYIKTTLYAPDGKKTSTEVKEKSAGGSA [r15_758_JUSTAS] | 0.355 ± 0.048 kcal/mol | 1.03 ± 0.098 kcal/mol | 0.773 ± 0.1 kcal/mol
SAGGSAMEKLKEIPGIERIEVKEDGKIIIHVKMSEEERKKLAEALRKEGKVKIEVVPVEVEEEEEESAGGSA [r15_554_TrROS_Hall] | 2.83 ± 0.12 kcal/mol | 2.03 ± 0.072 kcal/mol | 2.3 ± 0.11 kcal/mol
